Test results from the DeepSol protein solubility set.

Assay: soluble on expression in E. coli; label from the status in PepcDB or PDB records

Row | Sequence | soluble on expression in E. coli
1 | MSLLEKINSSTCTLRFKNDWLKIFTCPVPSSDFLSFVGVATIDAPQHAVLSLLYDIESATEWVWKTREMRVLQELADDNEGRVVYQVVSAPWPVSDREIISRSTAYKDPETGEVFIKIESLPDFIPETSNCVRVRKLEGAWNILPLSENSCRVVFRLHIEPAGEIPSWLANIAVIDTPYHTLNNMRDMVKREKYKNPVGAPLKESTEGIIRNYNDFITELEHHHHHH | soluble
2 | MSLLEQLDKNIAASGGLIVSCQPVPGSPLDKPEIVAAMALAAEQAGAVAVRIEGIDNLRMTRSLVSVPIIGIIKRDLDESPVRITPFLDDVDALAQAGAAIIAVDGTARQRPVAVEALLARIHHHHLLAMADCSSVDDGLACQRLGADIIGTTMSGYTTPDTPEEPDLPLVKALHDAGCRVIAEGRYNSPALAAEAIRYGAWAVTVGSAITRLEHICGWYNDALKKAAS | not soluble
3 | MSLLFSNTYRIESNAPLADKLRPKNLDDFFGQESILGHDSLLRNAILNDKVGNMIFSGPPGVGKTTLIEIISSNTRSSLIKLNAVLSSIKELRTEIANAKERLRSSNRKTILFIDEVHRFTSVQQDALLPSIENGTITFIGATTENPFFAVNKALISRARIFSLLPLNKNDLKKIIDKVIKYYSCLKDSKVVEIKEEAMNHLIKFSGGDARNLINALELGISITKENKENLVVIDLAIAEDSIQKKNIVYDKNGQNHFDVISAFIKSIRGSDPDATLYWLANMVEAGEDPNFIFRRLLISACEDIGLADPNAIVVVQSCCDAFDRVGFPEGLFFLSQASLYLAISPKSNSTKSIFKAMEAIKATNVSLVPNHLKNNASNYLNPHNYQGKWLQQEYLPTDLQGIKFWKPKDSGWEKNKYEDLPKKQKSEGHHHHHH | not soluble
4 | MSLLKMYADKRGLKDIKSNMVMREFEEVFEKFKDWTEKIKQKYPNPDEILNLEKEEKWDFSDLFGEFLGDYRTVKSYHEFDKDNPYLPSDEFNKYFAAFSQIQEEIRKEKAEKKALEVQEEDLSNEVRKEPQIFSWEYGEGIQANLDYIFHLIKDLYNCDNEQDRQKVLDKIKTAIRTNPEIQVNEDILNEFIEDLGKSFEKEKLEEVWKTEGKLRECLKDFCKKKEESNKKKIINDFLVKGVFLVEWVADKQLNTAKKKGEYSPSWSDTEKLIWKEKSTNLPTMTEKDEDGNFKWRKLITDISEAFKNEGHHHHHH | soluble
5 | MSLLPSQSPAIFTVSRLNQTVRLLLEHEMGQVWISGEISNFTQPASGHWYFTLKDDTAQVRCAMFRNSSRRVTFRPQHGQQVLVRANITLYEPRGDYQIIVESMQPAGEGLLQQKYEQLKAKLQAEGLFDQQYKKPLPSPAHCVGVITSKTGAALHDILHVLKRRDPSLPVIIYPAAVQGDDAPGQIVRAIELANQRNECDVLIVGRGGGSLEDLWSFNDERVARAIFTSRIPVVSAVGHETDVTIADFVADLRAPTPSAAAEVVSRNQQELLRQVQSTRQRLEMAMDYYLANRTRRFTQIHHRLQQQHPQLRLARQQTMLERLQKRMSFALENQLKRTGQQQQRLTQRLNQQNPQPKIHRAQTRIQQLEYRLAETLRAQLSATRERFGNAVTHLEAVSPLSTLARGYSVTTATDGNVLKKVKQVKAGEMLTTRLEDGWIESEVKNIQPVKKSRKKVHEGHHHHHH | not soluble
6 | MSLLVMKCSKCSAEAIYYAKYNGLYLCRDHFNEMIEGRVKKEIRKQVEFHGDDVTISVALSGGKDSSVTLFLLHKILGNRKNMKIKAFTVDEGIDGYRPSGLESAKRLCTSLGIDHETISFYDSYGLTLDSIVKTNPVKIPCAYCGPLRRKLINEMADKQDADYVALGLNLDDYSQSILMNVAKGDFDRFIRMSPQTDRKVGLVRRIAPLRTILEKEVVLYAVTNDIPFDSSWCPYYSRAQRNVFREVVNKLSEENPSTKFAILKFFDRVRENITTGHEEVKLKRCKICGAPTERDVCTACSSLQEVNEMMAEHEGHHHHHH | soluble
7 | MSLMLKKNDIIQVAISDLSHEGAGVAKHDGFVFFVDNALPEEVIDMRVLKVNKNSGFGKVEAYHYLSSARNADVNLTYLRTGIADLGHLTYEDQLTFKKKQVQDSLYKIAGISDVTVESTIGMTEPLAYRNKAQVPVRRVNGQLETGFFRKHSHDLIPISDYYIQDKEIDRLINFTRDLLRRFDIKPYDETEQTGLLRNIVVRRGHYSGEMMLVLVTTRPKVFRVDQVIEKIVEAFPAVVSIIQNINDKNTNAIFGKDFKTLYGKDTITDSMLGNNYAISAQSFYQVNTVMAEKLYQTAIAFSDLSKDDIVIDAYSGIGTIGLSFAKTVKAVYGVEVIEAAVRDAQQNAALNGITNAYFVADTAEHAMATWAKDGIKPSVILVDPPRKGLTESFIQASVAMGPQKITYVSCNPATMARDIKRYQELGYKLAKVQPVDLFPQTHHVECVVLLIKEEGHHHHHH | soluble
8 | MSLNARARALRHSRSGTIGLIVPDVNNAVFADMFSGVQMAASGHSTDVLLGQIDAPPRGTQQLSRLVSEGRVDGVLLQRREDFDDDMLAAVLEGVPAVTINSRVPGRVGSVILDDQKGGGIATEHLITLGHSRIAFISGTAIHDTAQRRKEGYLETLASAGLRSEAAWVVDAGWEADAGSAALNTLYRGANLGKPDGPTAVVVASVNAAVGALSTALRLGLRVPEDLSIVGINTTWVSDTVYPALTTVRLPLQRLGEVAADVLMEHLGGRALTDTVVTQPTPELLVRETTAPPTREGHHHHHH | soluble
9 | MSLNDGRLEIFQEGKPGRRIDEDQVFAAVLDALTKPAEQRTVTVAFREIPPPITAANLDQLGITTLIGVGRSDFTGSAAYRVTNIQAGMRLLHGVLIAPGEEFSFNQTIGRIDRSNGFVEGYAIIQNRTQLEWGGGICQDSTTMFRAAFWAGLPITERWGHSFYISWYDRYAFGPYGDGPGMDATIFTGGPDLKFLNDTGGWLLIQTLVDTHRHLAEVRLYGPDTGRKVLLEGPIITNRTPPPEEPVYVASPDRPVGQPRQSDTARGGMDILFTRIVLGPDGKEIERRQFVTRFKPWPNIFEYNPADEGHHHHHH | soluble
10 | MSLNDNNTILGFDVNLICDFFLNTERQGPGSPEVTLKALSFIDNLTNKSLIADLGCGTGGQTMILAQHVPGKITGIDFFPGFIERFNKNAEKLNLQNRVKGIVGSMDDLSFEKDSLDLIWSEGAIYNIGFERGLKEWRNYLKPGGYLAVSESVWFTDQRPAEIHDFWMSAYTEIDTVPNKVAQIQKAGYIPVATFILPENCWIEHYFAPQAKAEEIFRRKHAGSRIVEELITSNHHEAELYSKYKAYYGYAFFICKKGFSLREGHHHHHH | soluble
11 | MSLNDRTTTHGETEPRSEQPGIRAAAGPGRWHDVELMAYKPDDAAPFRSVTRQVLFSDLRLGCEWRYFEVAEGGYSTLERHQHVHATMIHRGRGQCLVGDVISDVAVGDLVFIPPMTWHQFRANAGDVLGFLCLVNADRDRPQLPRPDELAVLRQNKAIASFIGAEAEGHHHHHH | soluble
12 | MSLNEESFEEFSMVLEDDLVGGTFSKVGEHNKRENEDFYITKDILDLNNVSESQGLCFYSGIFDGHGGSNCARYVMNHLKTNVIAKFRQSFLITCKKKFKEKGSKLNELSVELRALYDSCIKGFDMTDKNYIELSKKYNYKDGSTACIVLIYGPDDDGSLKVLCANCGDSGAFICHNKKPIKLSLRHKPDLQEERIRILKCGGIIANINGINRIITKHKDRNNLNENNNNKSKEKTFLALSTSRSFGDISYKIPRKIVQCKPFISVYTIDFDLDSFLVLATDGILNVLSDEEIIDIIWKNIHRKPEQAAEEVVNEATRRGSTDDKTCTVIFFYWRKEGHHHHHH | soluble
13 | MSLNEESYLVNRGKGVVRYDVVQVPSNSPIEDDHAEKIVEVPASTSAANEGQSSSDWMFWAVFDGHSGWTTSAKLRNVLISYVARELNATYKSASSDPSLVLPSSEAVDAAIKQGFVRLDNDIVHGSVNQVFKSNSRRAAAELLAPALSGSCALLAFYDSQTRDLKVACAGDSRAVLGRRSENGKWTATPLSEDQTGGTPSEMKRLREEHPGEPNVVRNGRILGQLEPSRSFGDAFYKWSKETQEKIKRQFFGRTPHPLLKTPPYVTAEPIITTTKVDPSQGDFLVLATDGLWEMLSNEEVVGLVGQWIEEQKAAAGAGTGNKSWVRSLFGSQPTEGHHHHHH | soluble
14 | MSLNELRKRVEIERSLHEAEFKALSYQINPHFLFNVLNTIGRLAFLEDAQRTETMVHDFSDMMRYLLRKNSHGLITLRNEINYVNNYMSIQKVRMRDRFDYLCDIPEKYLDVVCPFLILQPLVENFFNYVVEPRDSNSHLLIRATDDGLNVIIEVTDNGDGIAPDTINRILSGDQKLQKGSIGINNIKNRLKLLFGESYGLEIMSPNKPRMGTTIKLRFPMQEAEGHHHHHH | soluble
15 | MSLNGLNSECHFYQTDGDIVVRCAQINDAERLSQYFVDNRSHLIEWEPRREAEFFTESGWLQRLIKLNELHKMKLGYYLLILDAQNDAMLGTISFSNIIRFPFHACNVGYSLAYEAQGKGIMTRALTMACQYMFSEHNMHRIMASYIPHNKRSENVLKRVGFVLEGHAKDYLLINGKWEDHNLTSLINPNWKEEGHHHHHH | soluble
16 | MSLNIFNSVKKAEIHVHLEATITPDLCKKFAKRNNHEIPEEMFGSEYAYQWDDFYDFIKKYDIVTSVIHTPEDYFELTYEYLKDCAANNVLYVEAMISSTHAKEKGMTYNSFIEGVYEASKKAEEDFGIVSRYIMNGIRHLGPESVQGTAEEVLNNPHPCLVGFGLAGDELHFPPNLFVETFDMLKKENFPITVHAGEWDGPVNIRNAINLLHPTRLGHGVRSIEDPDLVKEIIDKDIILETCPTSNVATKIYKDYIDHPVKTLFDQGVKVTVNSDDPPFFKCTINGEYKVMEDLGEGHHHHHH | soluble
17 | MSLNITPHDQTGSQLQDSTLSQRAIQTVRYINNINDWRYNNPSQKDGVIPDSAFGWSSLPELHNVLQADRVYVYQPDQPGLMSALLAQSRHSALVGKVVARRLLDSFGNDMQVNVPDSIADGSLVYLNEGHHHHHH | soluble
18 | MSLNKKVVIDDVAKLAGVSKATISRYLNGKFEYMSEKTKDRIKESIEELNYRPNNIARSLKSNKSKLIGVVIADLTNPFSSIIIKGIGDECKARGYNMVIANSDNDVKQEEEYIKSLLDQRVEGIIVNSTGYNEEFLLSIKERGIPVSMVDRTFCEDKVDSVKSNNYDITVETINYLIDAGFNSLCFFTERLDNIKPRIERERAFIDVCSKRLKKENYNISVVDYSKAGNLEVNIYKFLNNYSGKKAIFAVNGVVLLHTLSAINKLNINVPKDLGICGYDNWGWAALIPPGITTISQPSYEMGSEAAKLVLDRIEGKASLGAVCKTLSAKLEIRGSTIPLNEGHHHHHH | not soluble
19 | MSLNKLCVAALSVNNFCDNREALYGVFDGDRNVEVPYLLQCTMSDILAEELQKTKNEEEYMVNTFIVMQRKLGTAGQKLGGAAVLCHIKHDPVDPGGSFTLTSANVGKCQTVLCRNGKPLPLSRSYIMSCEEELKRIKQHKAIITEDGKVNGVTESTRILGYTFLHPSVVPRPHVQSVLLTPQDEFFILGSKGLWDSLSVEEAVEAVRNVPDALAAAKKLCTLAQSYGCHDSISAVVVQLSVTEDEGHHHHHH | not soluble
20 | MSLNLVSEQLLAANGLNHQDLFAILGQLAERRLDYGDLYFQSSYHESWVLEDRIIKDGSYNIDQGVGVRAISGEKTGFAYADQISLLALEQSAQAARTIVRENGEGKVKTLAAVAHQPLYTTLDPLQSMSREEKLDILRRVDKAAREADKRVQEVNASLTGVYELILVAATDGTLAADVRPLVRLSVSVQVEEDGKRERGASGGGGRFGYEYFLADLDGEVRADAWAKEAVRMALVNLSAVAAPAGTLPVVLGAGWPGVLLHEAVGHGLEGDFNRRGTSVFSGQIGEQVASALCTVVDDGTMMNRRGSVAIDDEGTPGQYNVLIENGVLKGYMQDKLNARLMGAAPTGNGRRESYAHLPMPRMTNTYMLAGQSTPQEIIESVEYGIYAPNFGGGQVDITSGKFVFSTSEAYLIENGKVTTPVKGATLIGSGIETMQQISMVGNDLKLDNGVGVCGKEGQSLPVGVGQPTLKVDNLTVGGTA | not soluble
